# Data: publication doi:10.1101/2024.10.18.618978v3
# Test system: NCCCNCCCCNCCCN
# Assay: colorimetric DTNB SSAT assay
# Type: biochemical, Homo sapiens
# Conditions: 0.25 mM AcCoA, pH 7.5, 37 °C
substance,measurement,value
SAT1 (Homo sapiens),Km,73.10 ± 8.328 µM
